Assay results: US20220227882A1 (TRUSTEES OF TUFTS COLLEGE, published 2022)

Legend:
[1] = target: T1, ADAM33 expressed in transiently transfected HEK293 cells (HEK293-ADAM33) (UniProt Q9BZ11 204-813); assay: FACS, fixed and permeabilized HEK293-ADAM33 cells
T1 construct: whole, on cells; Expression in HEK293 cells is mainly intracellular; also called HEK293-A33; A33
T1 sequence (looked up): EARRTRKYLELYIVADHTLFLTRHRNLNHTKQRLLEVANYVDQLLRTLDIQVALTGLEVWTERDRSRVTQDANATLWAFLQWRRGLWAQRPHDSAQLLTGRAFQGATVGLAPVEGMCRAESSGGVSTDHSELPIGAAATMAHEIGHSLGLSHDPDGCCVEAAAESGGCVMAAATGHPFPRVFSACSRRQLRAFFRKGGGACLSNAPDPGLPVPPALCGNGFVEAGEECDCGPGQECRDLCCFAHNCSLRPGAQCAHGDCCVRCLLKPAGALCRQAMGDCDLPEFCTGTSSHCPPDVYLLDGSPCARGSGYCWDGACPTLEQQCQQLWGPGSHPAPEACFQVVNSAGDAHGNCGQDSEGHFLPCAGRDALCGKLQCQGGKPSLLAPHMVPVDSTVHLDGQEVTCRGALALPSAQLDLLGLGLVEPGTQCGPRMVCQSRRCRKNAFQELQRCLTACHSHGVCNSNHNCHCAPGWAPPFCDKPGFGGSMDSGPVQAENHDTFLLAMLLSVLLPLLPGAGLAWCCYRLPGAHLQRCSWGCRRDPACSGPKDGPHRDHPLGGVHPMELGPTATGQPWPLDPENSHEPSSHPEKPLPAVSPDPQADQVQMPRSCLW
Protocol: ADP2 and ADP13 were also tested for cross-reactivity to the ADAM8 related protein ADAM33 using a variation of the above FACS protocol, which included steps for cell fixation and permeabilization. FACS was performed as an ELISA assay was precluded due to the lack of commercially available recombinant ADAM33. Cell fixation and permeabilization steps were needed as ADAM33 expression in HEK293 cells is primarily intracellular. HEK293 cells were transiently transfected over a 48-hr period with an ADAM33 construct (Clone ID HsCD00419548, Harvard Plasmid Information Database) or a control EV DNA (Plasmid #25890, Addgene) using Lipofectamine® 2000. Single cell suspensions (1×10⁶ cells/ml) were prepared in FACS buffer. Cell samples (1 ml) were centrifuged, resuspended in 50 μL cold 4% paraformaldehyde and incubated for 20 minutes at 4° C. in the dark with occasional shaking. Cells were then washed once with 1 ml FACS buffer, and then twice with 0.1% saponin FACS buffer. Samples were exposed to primary antibodies in 50 μL of 0.1% saponin FACS buffer for 30 minutes at 4° C. For ADP2, ADP13 and their respective IgG2b and IgG1 isotype matched controls, 2 μg of antibody were used. […] After three washes in 0.1% saponin FACS buffer, cells were resuspended in 500 μL FACS buffer and analyzed on a BD FACSCalibur™ machine.

[2] = target: T2, Recombinant human ADAM9 (R&D Systems, 939-AD-020) (human, UniProt Q13443 29-697); assay: ELISA, coated recombinant ADAM9
T2 sequence (looked up): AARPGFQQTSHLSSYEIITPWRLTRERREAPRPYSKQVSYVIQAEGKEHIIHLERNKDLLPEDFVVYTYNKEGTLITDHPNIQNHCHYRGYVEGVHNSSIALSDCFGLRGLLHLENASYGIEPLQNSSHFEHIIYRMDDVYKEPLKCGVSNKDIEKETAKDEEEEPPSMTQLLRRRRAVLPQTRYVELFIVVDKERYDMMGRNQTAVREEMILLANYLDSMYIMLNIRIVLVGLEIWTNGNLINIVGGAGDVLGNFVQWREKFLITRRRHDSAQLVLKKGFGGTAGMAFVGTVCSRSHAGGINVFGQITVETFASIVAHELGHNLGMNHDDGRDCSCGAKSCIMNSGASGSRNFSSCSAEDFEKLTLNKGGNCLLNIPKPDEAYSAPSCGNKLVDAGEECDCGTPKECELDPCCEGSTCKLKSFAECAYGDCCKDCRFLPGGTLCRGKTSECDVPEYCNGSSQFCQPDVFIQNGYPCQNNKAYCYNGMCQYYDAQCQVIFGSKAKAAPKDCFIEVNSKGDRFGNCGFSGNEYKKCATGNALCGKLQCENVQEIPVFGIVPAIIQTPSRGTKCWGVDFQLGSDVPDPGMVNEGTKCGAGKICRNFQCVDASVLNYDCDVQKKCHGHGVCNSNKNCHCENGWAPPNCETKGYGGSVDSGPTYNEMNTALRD

[3] = target: T2, Recombinant human ADAM9 (R&D Systems, …); assay: ELISA, recombinant ADAM9
Protocol: ELISA assays were also used to test hybridoma clones, subclones and purified ADP antibodies for specificity of ADAM8 binding, i.e., binding to rHuADAM8 (Acro Biosystems, AD8-H5223) was compared to binding to closely related recombinant human ADAM proteins: […], ADAM12 (Acro Biosystems, AD2-H5228) and ADAM15 (Sino Biological, 10517-H08H). For analysis of clones and subclones, 50 μl of cell supernatants were used. A test bleed sample (1:1000) was used as a positive control. Hybridoma culture medium or a pre-bleed serum sample (1:1000) was used as a negative control. Purified mouse ADPs were assessed at 1 μg/ml vs normal mouse IgG and with a test bleed sample as a positive control. ADP binding was detected with a goat anti-mouse IgG (Fc specific)-peroxidase antibody (1:5000, Sigma-Aldrich, A0168).

Binder	binding result [1]	OD 450nm [2] [OD450nm]	binding result [2]	binding result [3]
ADP2 (antibody, V domains shown, also called mADP2; mouse ADP2) VH: EVKLVESGGGLVQPGGSLSLSCAASGFSFPDYYMSWVRQPPGKALEWLGFIRDSANGYTTEYIASVKGRFTFSRDNSQSILYLQMNALRAEDSATYYCARYSRYYGMDYWGQGTSVTVSS VL: SIVMTQTPKILLVSAGDRVTITCKASQTVNYDVAWYQQKPGQSPKPVIYFASNRYTGVPDRFTGSGFGTDFTFTISTVQAEDLAVYFCQQDYSAPWTFGGGTKLEIK	no binding (tested: 2 µg antibody per sample)	0.07	no binding (tested: 1 µg/ml)	
ADP3 (antibody, IgG1, V domains shown) VH: EVKLEESGGGLVQPGGSMKLSCAASGFTFSDAWMDWVRQSPEKGLEWVAEIRGKVNNLATYYVESVKGRFTISRDDSKSSVYLQMNSLRAEDTGIYYCLGRYDATYAMDYWGQGTSVTVSS VL: DVVMTQTPLSLPVSLGDQASISCRSSQSLVHSDGNTYLHWYLQKPGQSPKLLIYKLSNRFSGVPDRFSGSGSGTDFTLKISRVEAEDLGVYFCSQSTHVPWTFGGGTKLEIK		0.15		no binding (tested: 1 µg/ml)
ADP13 (antibody, IgG1, V domains shown, also called mADP13; mouse ADP13) VH: EVQLQQSGPEMVKPGTSVKISCKASGYTFTDYYINWVKQSHGKSLEWIGDISPNIGGATYNPKFKGKAILTVDKSARTAYMELRSLTSEDSAVYCCTRGGSSYPYFYAMDYWGQGTSVTVSS VL: DIVMSQSPSSLAVSVGEKVTMSCKSSQSLLYSSNQKKYLAWYQQKPGQSPKLLIYWASTRESGVPDRFTGSGSGTDFTLTISSVKAEDLAVYYCQQFYSYPYTFGGGTKLEINR	no binding (tested: 2 µg antibody per sample)	0.12	no binding (tested: 1 µg/ml)	
